Data taken from patent US20110212108A1, “NEUREGULIN/ERBB SIGNALING AND INTEGRIN” (THE REGENTS OF THE UNIVERSITY OF CALIFORNIA, priority 2008, published 2011).
Substitutions are numbered along the chain they refer to. Entries after “also recorded” stand apart in the source; their conditions may differ. Ends that are not written are not given here. GST = glutathione S-transferase

Columns and labels:
[1] = biological target: T1, integrin αvβ3 (Homo sapiens, UniProt P05106+P06756); test: ELISA-type binding of soluble recombinant integrin αvβ3 to immobilized NRG1 fragments; conditions: soluble αvβ3, 1 mM Mn2+, room temperature
T1 construct: Soluble recombinant integrin αvβ3 (5 μg/ml) was added to the wells; made in house
Protocol: FIG. 1. […] The isolated EGF-like domain of Wt NRG1 was immobilized to wells of 96-well titer plates. The concentrations of the coating solution are shown. Soluble recombinant integrin αvβ3 (5 μg/ml) was added to the wells in the presence of 1 mM Mn^2+ and incubated for 2 h at room temperature. After washing the wells bound αvβ3 was determined by using anti-β3 antibody and HRP-conjugated anti-mouse IgG. The data is shown as means+/−SEM of triplicate experiments. FIG. 7. […] Wt GST-NRG1 (175-222) and the 2KE mutant of GST-NRG1 (175-222) were immobilized to wells of 96-well titer plates. The concentrations of the coating solution are shown. Soluble recombinant integrin αvβ3 (5 μg/ml) was added to the wells in the presence of 1 mM Mn^2+ and incubated for 2 h at room temperature. After washing, the wells bound αvβ3 was determined by using anti-β3 antibody and HRP-conjugated anti-mouse IgG. The data are shown as means+/−SD of triplicate experiments. […] Direct αvβ3-NRG (175-222) interaction: It has been well established that the EGF-like domain of the NRGs is sufficient to specifically activate ErbB receptors and to induce cellular responses in culture. To generate GST-NRG1 EGF-like domain fusion protein, the cDNA fragment of the EGF-like domain of NRG1 was amplified by PCR and subcloned into PGEX-2T vector to generate GST-NRG1 EGF-like domain fusion protein (designated GST-NRG1 (175-222)) in E. coli BL21. The fusion protein was purified in glutathione-affinity chromatography. The affinity resin was extensively washed with 1% Triton X-114 to remove endotoxin before eluting the protein. It was tested, in the present invention, whether soluble recombinant integrin αvβ3 binds to GST-NRG1 (175-222) that is immobilized to plastic wells (ELISA-type assay). […] Cell adhesion and soluble integrin binding assays were performed as described previously (Mori, et al., 2008). NRG1α (175-241) was immobilized to wells of 96-well microtiter plate overnight at 4° C. in 0.1 M carbonate buffer, pH 2 9.4. Remaining protein binding sites were blocked by incubating with 200 μl of 0.1% BSA in PBS for 60 min at room temperature. Wells were then incubated with soluble integrin αvβ3 in 50 μl in Hepes-Tyrode's buffer supplemented with 1 mM Mn2+ at room temperature for 60 min. After rinsing the wells with the same buffer, bound integrins were determined by horseradish peroxidase (HRP)-conjugated anti-His tag mouse IgG and substrate 3,3′,5,5′-tetramethylbenzidine of HRP.

[2] = biological target: T2, human integrin αvβ3 on K562 erythroleukemic cells (αvβ3-K562) (human, UniProt P06756 31-1048; P05106 27-788); test: cell adhesion of αvβ3-K562 cells
T2 construct: whole, on cells; also called K562 cells that express human αvβ3

[3] = biological target: T3, human integrin α6β4 on CHO cells (α6β4-CHO) (human, UniProt P23229 24-1130; P16144 28-1822); test: cell adhesion of α6β4-CHO cells to immobilised 3KE (175-222)
T3 construct: whole, on cells; also called keratinocyte integrin α6β4

[4] = biological target: T2, human integrin αvβ3 on K562 …; test: cell adhesion of αvβ3-K562 cells to immobilised 3KE (175-222)
[5] = biological target: T2, human integrin αvβ3 on K562 …; test: cell adhesion to immobilised NRG1α
[6] = biological target: T4, Recombinant human ErbB3 Fc chimera (R&D Systems) (human, UniProt P21860 20-643); test: ELISA-type assay, ErbB3 Fc coated at 1 µg/ml, bound GST fusion detected with anti-GST HRP
T4 construct: Bought from R&D Systems; also called recombinant soluble ErbB3 Fc fusion protein; recombinant soluble ErbB3; Fc part of the bought chimera not given; not described

[7] = tested on: mammary intraepithelial neoplasia-outgrowth (MIN-O); test: Outgrowth of precancer (MIN-O) in FVB mice; format: in vivo; conditions: 200 ng/day/mouse intraperitoneally, 5 days a week for 4 weeks; P=0.0355
Protocol: FIG. 16. Inhibitory effect of daily intraperitoneal injection of 3KE (175-222) on the outgrowth of precancer (MIN-O) in FVB mice. MIN-O was transplanted into fat pads of FVB mice (two per mice) and 3KE (175-222) (200 ng/mouse/day) was injected 5 days a week for 4 weeks starting day 0. After 28 days, mice were sacrificed and the dimensions of tumors were measured. Since MIN-O grows as a thin layer, the two-dimensional size was calculated and the thickness was ignored. P=0.0355 by ANOVA between control and 3KE (175-222).
To study the effect of 3KE (175-222) on the premalignant cancer, transplantable mammary intraepithelial neoplasia-outgrowth (MIN-O) tissue lines, which were derived from hyperplastic mammary lesions in young Tg(MMTV-PyV-mT) females (Maglione et al. 2004), were used. The resulting lesions mimic the biological behavior, molecular biology, and histopathology of human ductal carcinoma in situ (Maglione et al. 2004). One mm^3 pieces of the 8w-BMINO tissues (Maglione et al. 2004) were transplanted to gland-cleared no. 4 mammary fat pads of 3-week-old FVB females bilaterally.

T2 sequence (P06756 31-1048, chain 1 of 2): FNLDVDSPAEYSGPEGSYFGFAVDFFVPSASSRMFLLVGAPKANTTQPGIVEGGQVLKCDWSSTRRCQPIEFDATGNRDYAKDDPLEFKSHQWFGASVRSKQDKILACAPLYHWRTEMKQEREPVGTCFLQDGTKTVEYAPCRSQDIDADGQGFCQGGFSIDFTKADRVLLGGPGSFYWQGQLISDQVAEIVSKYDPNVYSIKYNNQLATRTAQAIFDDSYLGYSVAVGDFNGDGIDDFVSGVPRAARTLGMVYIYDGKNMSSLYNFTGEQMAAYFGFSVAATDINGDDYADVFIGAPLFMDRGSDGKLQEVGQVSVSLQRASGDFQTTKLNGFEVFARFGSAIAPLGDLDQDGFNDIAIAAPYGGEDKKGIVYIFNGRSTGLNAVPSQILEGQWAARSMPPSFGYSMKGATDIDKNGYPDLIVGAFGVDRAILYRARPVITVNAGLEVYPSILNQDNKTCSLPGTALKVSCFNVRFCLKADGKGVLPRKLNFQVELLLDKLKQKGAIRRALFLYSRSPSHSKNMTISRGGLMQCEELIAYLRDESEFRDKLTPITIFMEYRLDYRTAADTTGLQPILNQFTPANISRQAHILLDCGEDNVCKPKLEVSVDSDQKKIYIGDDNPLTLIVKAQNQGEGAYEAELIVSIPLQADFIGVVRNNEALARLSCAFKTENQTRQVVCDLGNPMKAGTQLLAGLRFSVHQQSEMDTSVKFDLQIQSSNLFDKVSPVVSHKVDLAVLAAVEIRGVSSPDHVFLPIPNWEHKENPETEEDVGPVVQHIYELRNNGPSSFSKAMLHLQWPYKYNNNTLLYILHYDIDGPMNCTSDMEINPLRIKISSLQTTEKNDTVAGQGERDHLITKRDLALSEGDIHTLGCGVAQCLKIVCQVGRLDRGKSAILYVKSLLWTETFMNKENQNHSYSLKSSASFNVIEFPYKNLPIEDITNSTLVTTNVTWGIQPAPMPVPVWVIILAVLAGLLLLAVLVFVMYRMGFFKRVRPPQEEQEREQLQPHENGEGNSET
T2 sequence (P05106 27-788, chain 2 of 2): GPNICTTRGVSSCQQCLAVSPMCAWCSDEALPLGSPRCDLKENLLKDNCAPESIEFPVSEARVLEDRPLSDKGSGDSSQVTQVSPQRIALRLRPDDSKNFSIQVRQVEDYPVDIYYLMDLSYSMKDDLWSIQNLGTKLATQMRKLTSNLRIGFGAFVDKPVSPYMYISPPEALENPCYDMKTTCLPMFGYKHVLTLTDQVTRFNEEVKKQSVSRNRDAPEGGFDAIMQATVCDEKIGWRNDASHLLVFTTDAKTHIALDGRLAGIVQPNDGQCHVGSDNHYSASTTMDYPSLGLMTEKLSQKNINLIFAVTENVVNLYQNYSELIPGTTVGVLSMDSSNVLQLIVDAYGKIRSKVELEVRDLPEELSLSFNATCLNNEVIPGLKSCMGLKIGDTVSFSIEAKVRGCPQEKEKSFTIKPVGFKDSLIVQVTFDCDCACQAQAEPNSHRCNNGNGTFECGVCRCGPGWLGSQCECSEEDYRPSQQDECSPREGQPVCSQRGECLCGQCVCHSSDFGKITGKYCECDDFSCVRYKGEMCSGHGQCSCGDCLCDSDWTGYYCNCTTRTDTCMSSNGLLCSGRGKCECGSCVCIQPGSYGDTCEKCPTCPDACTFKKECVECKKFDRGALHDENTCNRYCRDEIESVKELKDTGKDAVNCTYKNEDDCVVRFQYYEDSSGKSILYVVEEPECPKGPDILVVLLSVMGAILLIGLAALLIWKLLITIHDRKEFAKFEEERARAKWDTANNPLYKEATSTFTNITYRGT
T4 sequence (P21860 20-643, change not shown): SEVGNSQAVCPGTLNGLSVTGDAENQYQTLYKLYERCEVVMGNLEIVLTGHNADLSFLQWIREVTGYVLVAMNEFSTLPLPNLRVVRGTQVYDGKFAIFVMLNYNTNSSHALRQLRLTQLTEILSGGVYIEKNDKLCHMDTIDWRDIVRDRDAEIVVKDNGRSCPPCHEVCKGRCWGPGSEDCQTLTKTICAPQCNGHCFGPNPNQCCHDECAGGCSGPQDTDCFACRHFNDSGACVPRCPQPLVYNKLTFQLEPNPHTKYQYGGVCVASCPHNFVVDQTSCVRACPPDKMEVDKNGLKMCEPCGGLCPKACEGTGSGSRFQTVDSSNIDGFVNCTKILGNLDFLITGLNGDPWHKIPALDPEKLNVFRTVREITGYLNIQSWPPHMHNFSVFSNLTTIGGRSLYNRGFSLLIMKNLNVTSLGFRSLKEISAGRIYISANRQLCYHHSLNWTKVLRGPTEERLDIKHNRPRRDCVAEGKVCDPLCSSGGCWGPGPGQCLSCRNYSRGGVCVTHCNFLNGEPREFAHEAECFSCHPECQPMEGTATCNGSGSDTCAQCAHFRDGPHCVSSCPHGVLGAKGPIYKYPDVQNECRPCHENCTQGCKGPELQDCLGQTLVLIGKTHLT
T1 sequence (P06756 31-992 limits assumed): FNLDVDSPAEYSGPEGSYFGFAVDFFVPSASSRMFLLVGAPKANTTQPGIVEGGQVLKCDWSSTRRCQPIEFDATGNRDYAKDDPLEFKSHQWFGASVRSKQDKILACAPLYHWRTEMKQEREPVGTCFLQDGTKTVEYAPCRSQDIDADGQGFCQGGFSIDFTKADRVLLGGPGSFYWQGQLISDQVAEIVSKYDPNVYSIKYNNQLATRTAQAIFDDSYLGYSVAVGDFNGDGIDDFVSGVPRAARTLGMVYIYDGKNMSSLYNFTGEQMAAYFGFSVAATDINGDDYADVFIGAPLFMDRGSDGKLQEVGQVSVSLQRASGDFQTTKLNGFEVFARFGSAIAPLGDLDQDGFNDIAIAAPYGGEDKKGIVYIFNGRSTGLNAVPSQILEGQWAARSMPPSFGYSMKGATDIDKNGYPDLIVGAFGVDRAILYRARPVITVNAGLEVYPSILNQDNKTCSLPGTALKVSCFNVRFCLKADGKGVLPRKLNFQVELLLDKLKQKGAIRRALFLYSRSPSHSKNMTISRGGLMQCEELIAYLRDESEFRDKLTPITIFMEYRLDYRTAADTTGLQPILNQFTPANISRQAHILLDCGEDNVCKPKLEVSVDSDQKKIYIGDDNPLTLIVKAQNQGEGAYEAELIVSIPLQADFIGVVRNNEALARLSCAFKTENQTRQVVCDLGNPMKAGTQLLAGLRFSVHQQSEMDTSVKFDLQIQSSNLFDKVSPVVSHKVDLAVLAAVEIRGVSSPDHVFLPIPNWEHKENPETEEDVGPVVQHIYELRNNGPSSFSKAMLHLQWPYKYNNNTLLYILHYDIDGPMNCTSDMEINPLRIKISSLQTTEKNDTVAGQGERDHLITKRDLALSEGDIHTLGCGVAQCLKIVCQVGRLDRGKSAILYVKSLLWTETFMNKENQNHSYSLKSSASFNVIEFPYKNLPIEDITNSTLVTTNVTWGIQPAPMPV
T1 sequence (P05106 27-718 limits assumed): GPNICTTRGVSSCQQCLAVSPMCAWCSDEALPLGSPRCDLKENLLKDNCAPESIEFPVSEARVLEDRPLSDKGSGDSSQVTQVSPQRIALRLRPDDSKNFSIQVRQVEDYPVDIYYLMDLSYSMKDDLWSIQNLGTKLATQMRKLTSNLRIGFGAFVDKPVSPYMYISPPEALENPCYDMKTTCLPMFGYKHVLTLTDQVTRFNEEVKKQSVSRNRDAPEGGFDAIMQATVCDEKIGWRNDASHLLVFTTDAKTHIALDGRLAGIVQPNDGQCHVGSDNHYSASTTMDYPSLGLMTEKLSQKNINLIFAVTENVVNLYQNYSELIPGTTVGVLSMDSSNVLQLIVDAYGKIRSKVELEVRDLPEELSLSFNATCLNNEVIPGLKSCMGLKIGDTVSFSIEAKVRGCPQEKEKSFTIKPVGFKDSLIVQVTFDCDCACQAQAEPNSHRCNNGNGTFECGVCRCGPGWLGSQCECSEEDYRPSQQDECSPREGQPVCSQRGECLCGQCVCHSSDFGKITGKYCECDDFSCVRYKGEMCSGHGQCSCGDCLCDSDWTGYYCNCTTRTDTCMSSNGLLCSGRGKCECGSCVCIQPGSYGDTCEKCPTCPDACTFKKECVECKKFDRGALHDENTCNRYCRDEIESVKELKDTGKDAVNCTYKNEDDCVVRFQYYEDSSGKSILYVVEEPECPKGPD

2KE (175-222): NRG1 (175-222) with Lys185/Lys187 mutated to Glu; GTSHLVKCAEEEETFCVNGGECFMVKDLSNPSRYLCKCQPGFTGARCT (SEQ ID NO:12) (integrin-binding site within human neuregulin, 2KE mutant, short version)
Binding of soluble recombinant integrin αvβ3 to the immobilized protein [1]: much lower affinity to αvβ3; also recorded: did not

B1: GST-NRG1 (175-222), wild type EGF-like domain of human neuregulin 1 as GST fusion protein (ligand)
chain: {GST}-GTSHLVKCAEKEKTFCVNGGECFMVKDLSNPSRYLCKCQPGFTGARCT
modifications: not fully specified; cysteine pairing not given here
notes: Made in E. coli as GST fusion (pGEX-2T); not shown: glutathione S-transferase (GST) tag as encoded by the pGEX-2T vector, N-terminal
binding result [2]: binds

GTSHLVECAEEEETFCVNGGECFMVKDLSNPSRYLCKCQPGFTGARCT (ligand, not shown: a dimerising Fc or GST; large carriers; small tags and cut ends) [3KE (175-222) mutant of NRG1 (Lys181/Lys185/Lys187 to Glu), GST fusion protein]
binding result [3]: no binding
binding result [4]: no binding

B2: GST-NRG1α (175-241), wild type (EGF-like motif and α domain of human neuregulin 1α as GST fusion protein) (ligand)
chain: GTSHLVKCAEKEKTFCVNGGECFMVKDLSNPSRYLCKCQPGFTGARCTENVPMKVQNQEKAEELYQK
notes: not shown: glutathione S-transferase (GST) tag as encoded by the pGEX-2T vector, N-terminal
binding result [5]: binds
binding result [6]: binds

B3: 3KE (175-241) mutant of NRG1α (Lys181/Lys185/Lys187 to Glu), GST fusion protein (ligand, not shown: a dimerising Fc or GST; large carriers; small tags and cut ends)
chain: B2 chain with K7E, K11E, K13E
binding result [6]: binds

B4: γC399tr: Control protein in the MIN-O experiment (protein)
chain: KDCQDIANKGAKQSGLYFIKPLKANQQFLVYCEIDGSGNGWTVFQKRLDGSVDFKKNWIQYKEGFGHLSPTGTTEFWLGNEKIHLISTQSAIPYALRVELEDWNGRTSTADYAMFKVGPEADKYRLTYAYFAGGDAGDAFDGFDFGDDPSDKFFTSHNGMQFSTWDNDNDKFEGNCAEQDGSGWWMNKCHAGHLNGVYYQGGTYSKASTPNGYDNGIIWATWKTRWYSMKKTTMKIIPFNRLTIGEGQQ
Outgrowth of MIN-O in FVB mice [7]: did not affect the outgrowth of MIN-O
